Measured values as given in patent US20090035321A1, “Intercellular adhesion molecules and their binding ligands” (Boehringer Ingelheim Pharmaceuticals, Inc., published 2009).
Blank lines part the entries; values can stand above or below the substance they belong to.

What was measured:
[1] = molecular target: ICAM-1 N269QSQI/IQAEQ (human) (UniProt P05362); assay: COS cells on LFA-1 coated plastic
[2] = molecular target: Intercellular Adhesion Molecule-1 (ICAM-1), wild type, on the cell surface (human) (UniProt P05362); assay: COS cells on LFA-1 coated plastic
[3] = molecular target: ICAM-1 N240DS/KNA (human, UniProt P05362); assay: COS cells on LFA-1 coated plastic
[4] = molecular target: ICAM-1 E254DE/KEK (human, UniProt P05362); assay: COS cells on LFA-1 coated plastic
[5] = molecular target: ICAM-1 Q1/E (human, UniProt P05362); assay: COS cells on LFA-1 coated plastic
[6] = molecular target: ICAM-1 Q1/K (human, UniProt P05362); assay: COS cells on LFA-1 coated plastic
[7] = molecular target: T1, ICAM-1 S3VS/AGL (human, UniProt P05362); assay: COS cells on LFA-1 coated plastic
[8] = molecular target: ICAM-1 K8/E (human, UniProt P05362); assay: COS cells on LFA-1 coated plastic
[9] = molecular target: ICAM-1 R13/K (human, UniProt P05362); assay: COS cells on LFA-1 coated plastic
[10] = molecular target: ICAM-1 T20CS/ACT (human, UniProt P05362); assay: COS cells on LFA-1 coated plastic
[11] = molecular target: ICAM-1 K39KE/ERQ (human, UniProt P05362); assay: COS cells on LFA-1 coated plastic
[12] = molecular target: T2, ICAM-1 K40/A (human, UniProt P05362); assay: COS cells on LFA-1 coated plastic
[13] = molecular target: ICAM-1 Y52/FA (human, UniProt P05362); assay: COS cells on LFA-1 coated plastic
[14] = molecular target: ICAM-1 N56V/HM (human, UniProt P05362); assay: COS cells on LFA-1 coated plastic
[15] = molecular target: ICAM-1 E59/Q (human, UniProt P05362); assay: COS cells on LFA-1 coated plastic
[16] = molecular target: ICAM-1 D60S/KL (human, UniProt P05362); assay: COS cells on LFA-1 coated plastic
[17] = molecular target: ICAM-1 D60/K (human, UniProt P05362); assay: COS cells on LFA-1 coated plastic
[18] = molecular target: ICAM-1 D60/N (human, UniProt P05362); assay: COS cells on LFA-1 coated plastic
[19] = molecular target: T3, ICAM-1 Q62PM/API (human, UniProt P05362); assay: COS cells on LFA-1 coated plastic
[20] = molecular target: T4, ICAM-1 D71GQS/NGEL (human, UniProt P05362); assay: COS cells on LFA-1 coated plastic
[21] = molecular target: ICAM-1 Q73/H (human, UniProt P05362); assay: COS cells on LFA-1 coated plastic
[22] = molecular target: ICAM-1 Q73/T (human, UniProt P05362); assay: COS cells on LFA-1 coated plastic
[23] = molecular target: T5, ICAM-1 Y83/S (human, UniProt P05362); assay: COS cells on LFA-1 coated plastic
[24] = molecular target: T6, ICAM-1 R88V/EA (human, UniProt P05362); assay: COS cells on LFA-1 coated plastic
[25] = molecular target: ICAM-1 E90/K (human, UniProt P05362); assay: COS cells on LFA-1 coated plastic
[26] = molecular target: ICAM-1 G101K/AN (human, UniProt P05362); assay: COS cells on LFA-1 coated plastic
[27] = molecular target: ICAM-1 E111GGA/KAGS (human, UniProt P05362); assay: COS cells on LFA-1 coated plastic
[28] = molecular target: ICAM-1 R125/E (human, UniProt P05362); assay: COS cells on LFA-1 coated plastic
[29] = molecular target: ICAM-1 K128/R (human, UniProt P05362); assay: COS cells on LFA-1 coated plastic
[30] = molecular target: ICAM-1 V136GE/GVK (human, UniProt P05362); assay: COS cells on LFA-1 coated plastic
[31] = molecular target: ICAM-1 H152HGA/EEGS (human, UniProt P05362); assay: COS cells on LFA-1 coated plastic
[32] = molecular target: ICAM-1 N175TSA/QTLG (human, UniProt P05362); assay: COS cells on LFA-1 coated plastic
[33] = molecular target: T7, ICAM-1 N175/A (human, UniProt P05362); assay: COS cells on LFA-1 coated plastic
[34] = molecular target: ICAM-1 D203TQ/TAD (human, UniProt P05362); assay: COS cells on LFA-1 coated plastic
[35] = molecular target: ICAM-1 D229QR/HLE (human, UniProt P05362); assay: COS cells on LFA-1 coated plastic
[36] = molecular target: T1, ICAM-1 S3VS/AGL; assay: flow, COS cells
[37] = molecular target: ICAM-1 R13/Q (human, UniProt P05362); assay: flow, COS cells
[38] = molecular target: ICAM-1 S24/A (human, UniProt P05362); assay: flow, COS cells
[39] = molecular target: T2, ICAM-1 K40/A; assay: flow, COS cells
[40] = molecular target: ICAM-1 D60/Q (human, UniProt P05362); assay: flow, COS cells
[41] = molecular target: T3, ICAM-1 Q62PM/API; assay: flow, COS cells
[42] = molecular target: ICAM-1 Y66/T (human, UniProt P05362); assay: flow, COS cells
[43] = molecular target: T4, ICAM-1 D71GQS/NGEL; assay: flow, COS cells
[44] = molecular target: T5, ICAM-1 Y83/S; assay: flow, COS cells
[45] = molecular target: T6, ICAM-1 R88V/EA; assay: flow, COS cells
[46] = molecular target: T7, ICAM-1 N175/A; assay: flow, COS cells

LFA-1 Binding % (% of wild type) [1]: 101 | % of COS cells bound (mean) [2]: 33% | LFA-1 Binding % (% of wild type) [3]: 147 | LFA-1 Binding % (% of wild type) [4]: 122 | LFA-1 Binding % (% of wild type) [5]: 175 | LFA-1 Binding % (% of wild type) [6]: 97 | LFA-1 Binding % (% of wild type) [7]: 18 | LFA-1 Binding % (% of wild type) [8]: 84 | LFA-1 Binding % (% of wild type) [9]: 98 | LFA-1 Binding % (% of wild type) [10]: 91 | LFA-1 Binding % (% of wild type) [11]: 99 | LFA-1 Binding % (% of wild type) [12]: 124 | LFA-1 Binding % (% of wild type) [13]: 138 | LFA-1 Binding % (% of wild type) [14]: 121 | LFA-1 Binding % (% of wild type) [15]: 84 | LFA-1 Binding % (% of wild type) [16]: 1 | LFA-1 Binding % (% of wild type) [17]: 14 | LFA-1 Binding % (% of wild type) [18]: 92 | LFA-1 Binding % (% of wild type) [19]: 104 | LFA-1 Binding % (% of wild type) [20]: 1 | LFA-1 Binding % (% of wild type) [21]: 12 | LFA-1 Binding % (% of wild type) [22]: 40 | LFA-1 Binding % (% of wild type) [23]: 42 | LFA-1 Binding % (% of wild type) [24]: 95 | LFA-1 Binding % (% of wild type) [25]: 34 | LFA-1 Binding % (% of wild type) [26]: 97 | LFA-1 Binding % (% of wild type) [27]: 103 | LFA-1 Binding % (% of wild type) [28]: 81 | LFA-1 Binding % (% of wild type) [29]: 109 | LFA-1 Binding % (% of wild type) [30]: 92 | LFA-1 Binding % (% of wild type) [31]: 85 | LFA-1 Binding % (% of wild type) [33]: 67 | LFA-1 Binding % (% of wild type) [34]: 91 | LFA-1 Binding % (% of wild type) [35]: 90
Substance: purified LFA-1, bound to plastic (from UniProt P20701) (receptor)
LFA-1 Binding % (% of wild type) [32]: 26

SLFI % WT [36]: 121 % WT | SLFI % WT [37]: 161 % WT | SLFI % WT [38]: 158 % WT | SLFI % WT [39]: 146 % WT | SLFI % WT [40]: 80 % WT | SLFI % WT [41]: 200 % WT | SLFI % WT [42]: 144 % WT | SLFI % WT [43]: 161 % WT | SLFI % WT [44]: 125 % WT | SLFI % WT [45]: 113 % WT | SLFI % WT [46]: 80 % WT
Substance: monoclonal antibody CL203
